In patent publication US20160122768A1 (LA JOLLA INSTITUTE FOR ALLERGY AND IMMUNOLOGY, published 2016):

T1: C-terminally HA-tagged wild type (WT) RPTPκ (NM 008983.2), full-length, immunoprecipitated from COS-1 cells (UniProt P35822 26-1457)
T1 construct: It was held on anti-HA immunoprecipitate beads in the assay; also called HA-tagged WT RPTPκ; full-length RPTPk; not shown: C-terminal HA tag
T1 sequence (looked up): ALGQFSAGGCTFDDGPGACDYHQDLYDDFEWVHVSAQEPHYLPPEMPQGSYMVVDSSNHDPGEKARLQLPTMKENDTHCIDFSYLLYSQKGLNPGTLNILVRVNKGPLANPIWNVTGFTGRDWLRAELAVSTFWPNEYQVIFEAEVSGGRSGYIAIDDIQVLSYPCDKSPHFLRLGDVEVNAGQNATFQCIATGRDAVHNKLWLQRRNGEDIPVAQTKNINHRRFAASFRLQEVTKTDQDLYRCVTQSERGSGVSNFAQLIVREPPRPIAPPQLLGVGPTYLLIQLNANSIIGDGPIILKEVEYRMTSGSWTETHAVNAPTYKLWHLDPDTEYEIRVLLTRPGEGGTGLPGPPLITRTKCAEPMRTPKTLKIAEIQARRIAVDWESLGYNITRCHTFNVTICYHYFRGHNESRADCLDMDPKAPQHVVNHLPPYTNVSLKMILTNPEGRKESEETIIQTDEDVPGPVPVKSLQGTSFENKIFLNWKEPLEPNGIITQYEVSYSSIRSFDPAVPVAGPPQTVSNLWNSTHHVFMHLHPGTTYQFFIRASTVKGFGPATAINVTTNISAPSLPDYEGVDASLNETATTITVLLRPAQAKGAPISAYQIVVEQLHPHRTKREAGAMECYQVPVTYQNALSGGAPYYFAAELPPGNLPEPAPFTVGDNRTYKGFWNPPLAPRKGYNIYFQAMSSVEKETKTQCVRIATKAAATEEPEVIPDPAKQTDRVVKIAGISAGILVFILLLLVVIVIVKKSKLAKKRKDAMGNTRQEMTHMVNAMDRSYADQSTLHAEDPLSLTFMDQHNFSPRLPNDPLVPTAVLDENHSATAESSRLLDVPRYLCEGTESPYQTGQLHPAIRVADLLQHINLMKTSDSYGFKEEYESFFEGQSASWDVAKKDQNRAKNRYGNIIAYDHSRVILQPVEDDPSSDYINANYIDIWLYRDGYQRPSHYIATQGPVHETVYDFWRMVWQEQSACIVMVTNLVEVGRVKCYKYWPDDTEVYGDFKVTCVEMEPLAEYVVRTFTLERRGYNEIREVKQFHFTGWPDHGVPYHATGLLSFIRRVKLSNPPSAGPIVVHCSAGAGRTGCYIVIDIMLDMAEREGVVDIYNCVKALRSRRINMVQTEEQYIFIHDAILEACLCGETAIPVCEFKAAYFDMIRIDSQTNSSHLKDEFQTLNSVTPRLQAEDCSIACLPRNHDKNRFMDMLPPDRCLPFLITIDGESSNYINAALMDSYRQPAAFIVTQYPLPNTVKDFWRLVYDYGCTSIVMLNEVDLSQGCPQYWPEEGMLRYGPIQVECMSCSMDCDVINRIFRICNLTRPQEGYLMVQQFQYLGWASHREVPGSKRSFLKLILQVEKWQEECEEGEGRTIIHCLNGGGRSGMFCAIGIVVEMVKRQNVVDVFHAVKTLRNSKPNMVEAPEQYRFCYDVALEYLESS

B1: YES (endogenous, from RA FLS lysates) (enzyme)
chain: not shown

What was measured:
[1] = target: T1, C-terminally HA-tagged wild type (WT) …; experiment: pull-down of RA FLS lysates with immunoprecipitated HA-tagged RPTPκ, Western blotting
Method: In vitro Pull-Down Assay. HA-tagged WT RPTPκ was overexpressed in COS-1 cells. Cells were lysed in THE buffer (20 mM Tris-HCl pH 7.5, 150 mM NaCl, 5 mM EDTA pH 8.0 and 1% NP-40) containing 10 μg/mL aprotinin, 10 μg/mL leupeptin, 10 μg/mL soybean trypsin inhibitor, and 1 mM phenylmethylsulfonyl fluoride. RPTPκ was immunoprecipitated using anti-HA antibody (Covance, Princeton, N.J.). RA FLS were lysed in RIPA buffer containing 10 μg/mL aprotinin, 10 μg/mL leupeptin, 10 μg/mL soybean trypsin inhibitor, 1 mM phenylmethylsulfonyl fluoride and 5 mM iodoacetamide. Lysates were treated with 10 mM dithiothreitol for 10 min, and then diluted 10-fold in buffer containing 25 mM Tris-HCl pH 7.6, 150 mM NaCl and 1 mM ethylenediaminetetraacetic acid. Immunoprecipitates were incubated with RA FLS lysates for 3 hr at 4° C., washed in the dilution buffer, and subjected to Western blotting.
We next investigated if RPTPk directly interacts with and/or dephosphorylates SFKs. HA-tagged RPTPκ was immunoprecipitated from COS-1 cells and incubated in vitro with RA FLS lysates, and pull-down was subjected to Western blotting. Both full-length RPTPk immunoprecipitated from COS-1 cells and a recombinant substrate-trapping mutant of the RPTPk catalytic domain (iPTPk-D1051A) precipitated SRC from RA FLS lysates in pull-down assays, but not YES or FYN (SFKs also expressed in FLS).

[2] = target: FYN (endogenous, from RA FLS lysates) (human, UniProt P06241 2-537, limits assumed); experiment: substrate-trapping pull-down of RA FLS lysates with agarose-bound S-tagged iPTPκ-D1051A, Western blotting
Method: (§1) Accordingly, cDNA (codon optimized for expression in E. coli [Genscript, Piscataway, N.J.]) encoding a substrate-trapping mutant of the catalytic domain of RPTPκ (iPTPK-D1051A, aa865-1156 of NP_002835.2) was cloned into the pET30c vector. S-tagged-iPTPK-D1051A was isolated from E. coli using S-protein agarose (EMD Millipore). RA FLS were lysed in RIPA buffer containing 10 μg/mL aprotinin, 10 μg/mL leupeptin, 10 μg/mL soybean trypsin inhibitor, 1 mM phenylmethylsulfonyl fluoride and 5 mM iodoacetamide. Lysates were treated with 10 mM dithiothreitol for 10 min, and then diluted 10-fold in buffer containing 25 mM Tris-HCl pH 7.6, 150 mM NaCl and 1 mM ethylenediaminetetraacetic acid. Agarose-bound S-tagged-iPTPκ-D1051A was incubated with RA FLS lysates for 3 hr at 4° C., washed in the dilution buffer, and subjected to Western blotting.

[3] = target: B1; experiment: as above
Method: as §1

FYN (endogenous, from RA FLS lysates), sequence (P06241 2-537 limits assumed): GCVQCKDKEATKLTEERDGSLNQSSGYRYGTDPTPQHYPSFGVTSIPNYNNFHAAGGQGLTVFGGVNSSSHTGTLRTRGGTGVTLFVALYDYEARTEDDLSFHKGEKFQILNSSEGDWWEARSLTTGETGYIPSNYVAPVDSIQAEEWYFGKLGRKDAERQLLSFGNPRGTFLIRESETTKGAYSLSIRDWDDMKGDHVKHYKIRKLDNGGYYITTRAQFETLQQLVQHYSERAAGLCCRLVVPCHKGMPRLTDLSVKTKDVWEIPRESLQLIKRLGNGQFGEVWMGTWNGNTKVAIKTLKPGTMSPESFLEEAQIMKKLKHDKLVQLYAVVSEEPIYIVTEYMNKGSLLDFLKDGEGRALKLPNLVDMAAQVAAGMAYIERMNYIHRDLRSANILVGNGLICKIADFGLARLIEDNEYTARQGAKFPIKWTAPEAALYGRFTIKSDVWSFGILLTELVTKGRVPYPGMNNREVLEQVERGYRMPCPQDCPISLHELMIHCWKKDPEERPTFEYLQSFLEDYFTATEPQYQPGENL

| binding result [1] | binding result [2] | binding result [3] | Binder |
| --- | --- | --- | --- |
| no binding |  |  | B1 |
|  | no binding | no binding | S-tagged-iPTPκ-D1051A, substrate-trapping mutant of the catalytic domain of RPTPκ (aa865-1156 of NP_002835.2) (enzyme, not shown: small tags and cut ends, Numbering counts on NP_002835.2, which may differ from the canonical UniProt isoform; also called iPTPk-D1051A; iPTPK-D1051A) HPAIRVADLLQHINLMKTSDSYGFKEEYESFFEGQSASWDVAKKDQNRAKNRYGNIIAYDHSRVILQPVEDDPSSDYINANYIDGYQRPSHYIATQGPVHETVYDFWRMIWQEQSACIVMVTNLVEVGRVKCYKYWPDDTEVYGDFKVTCVEMEPLAEYVVRTFTLERRGYNEIREVKQFHFTGWPAHGVPYHATGLLSFIRRVKLSNPPSAGPIVVHCSAGAGRTGCYIVIDIMLDMAEREGVVDIYNCVKALRSRRINMVQTEEQYIFIHDAILEACLCGETAIPVCEFK |
